Columns and labels:
[1] = molecular target: T1, cCFP-CRY2 (C terminus of cyan fluorescent protein fused to CRY2) (Arabidopsis, UniProt Q96524 1-612); assay: BiFC in Arabidopsis protoplasts
T1 construct: BiFC construct in Arabidopsis protoplasts; not shown: C terminus of cyan fluorescent protein

[2] = molecular target: T2, Arabidopsis cryptochrome 2 (CRY2) (Arabidopsis, UniProt Q96524 1-612); assay: yeast β-gal assay, dark or blue light (FIG. 5H)
T2 construct: also called AT1G04400
Description: The H293 cells were transfected with vector expressing CRY2 only (CRY2), or together with vector expression Myc-BIC1 (CRY2+BIC1) and cultured in dark for 24 hours. The cells were cracked and divided into equally 12 tubes, then treated with blue light (40 μmol m⁻² s⁻¹) for the duration indicated. The sample were analyzed by western blot using anti-CRY2 antibody and anti-Myc antibody sequentially. (FIG. 5B) β-Gal assay of yeast cells expressing indicated proteins kept in darkness (D) or irradiated with blue light (B50, 50 μmol m⁻² s⁻¹) for indicated durations. (FIG. 5C) Fluorescence images showing the formation of CRY2-GFP nuclear bodies in the protoplasts of WT, BIC1-OX line or […]. The protoplasts transformed with CRY2-GFP construct were kept in darkness overnight and then irradiated with blue light (20 μmol m⁻² s⁻¹) for the time indicated. […] Each sample contains at least 50 protoplast. Means and SD (n=3) are shown. (FIG. 5E) BiFC analysis of the blue-light-induced formation of CRY2 nuclear bodies in protoplasts of WT, BIC1-OX line or BIC2-OX line. The protoplasts transformed with cYFP-CRY2 and nYFP-CRY2 constructs were kept in darkness overnight and then irradiated with blue light (20 μmol m⁻² s⁻¹) for the time indicated. […] Each sample contains at least 50 protoplast. Means and SD (n=3) are shown. […]

Row | Binder | binding result [1] | binding result [2]
1 | nYFP-CRY2 (N terminus of YFP fused to CRY2) (other, BiFC construct in Arabidopsis protoplasts; not shown: N terminus of YFP) MKMDKKTIVWFRRDLRIEDNPALAAAAHEGSVFPVFIWCPEEEGQFYPGRASRWWMKQSLAHLSQSLKALGSDLTLIKTHNTISAILDCIRVTGATKVVFNHLYDPVSLVRDHTVKEKLVERGISVQSYNGDLLYEPWEIYCEKGKPFTSFNSYWKKCLDMSIESVMLPPPWRLMPITAAAEAIWACSIEELGLENEAEKPSNALLTRAWSPGWSNADKLLNEFIEKQLIDYAKNSKKVVGNSTSLLSPYLHFGEISVRHVFQCARMKQIIWARDKNSEGEESADLFLRGIGLREYSRYICFNFPFTHEQSLLSHLRFFPWDADVDKFKAWRQGRTGYPLVDAGMRELWATGWMHNRIRVIVSSFAVKFLLLPWKWGMKYFWDTLLDADLECDILGWQYISGSIPDGHELDRLDNPALQGAKYDPEGEYIRQWLPELARLPTEWIHHPWDAPLTVLKASGVELGTNYAKPIVDIDTARELLAKAISRTREAQIMIGAAPDEIVADSFEALGANTIKEPGLCPSVSSNDQQVPSAVRYNGSKRVKPEEEEERDMKKSRGFDERELFSTAESSSSSSVFFVSQSCSLASEGKNLEGIQDSSDQITTSLGKNGCK | binds | 
2 | Arabidopsis CIB1 (cryptochrome-interacting basic-helix-loop-helix) protein (other, also called AT4G34530) MNGAIGGDLLLNFPDMSVLERQRAHLKYLNPTFDSPLAGFFADSSMITGGEMDSYLSTAGLNLPMMYGETTVEGDSRLSISPETTLGTGNFKKRKFDTETKDCNEKKKKMTMNRDDLVEEGEEEKSKITEQNNGSTKSIKKMKHKAKKEENNFSNDSSKVTKELEKTDYIHVRARRGQATDSHSIAERVRREKISERMKFLQDLVPGCDKITGKAGMLDEIINYVQSLQRQIEFLSMKLAIVNPRPDFDMDDIFAKEVASTPMTVVPSPEMVLSGYSHEMVHSGYSSEMVNSGYLHVNPMQQVNTSSDPLSCFNNGEAPSMWDSHVQNLYGNLGV |  | binds

Source: US20190300875A1 (University of California, published 2019)
